# Measurements taken from WO1996020011A1.
# Molecular target: LoVo tumour cells (carcinoembryonic antigen, the antigen of A5B7, on the cells) (human) (UniProt P06731)
# Test: binding of the 125I-labelled conjugate to LoVo tumour cells, method of Lindmo et al.
# Chain of UniProt P06731 (P06731 35-702): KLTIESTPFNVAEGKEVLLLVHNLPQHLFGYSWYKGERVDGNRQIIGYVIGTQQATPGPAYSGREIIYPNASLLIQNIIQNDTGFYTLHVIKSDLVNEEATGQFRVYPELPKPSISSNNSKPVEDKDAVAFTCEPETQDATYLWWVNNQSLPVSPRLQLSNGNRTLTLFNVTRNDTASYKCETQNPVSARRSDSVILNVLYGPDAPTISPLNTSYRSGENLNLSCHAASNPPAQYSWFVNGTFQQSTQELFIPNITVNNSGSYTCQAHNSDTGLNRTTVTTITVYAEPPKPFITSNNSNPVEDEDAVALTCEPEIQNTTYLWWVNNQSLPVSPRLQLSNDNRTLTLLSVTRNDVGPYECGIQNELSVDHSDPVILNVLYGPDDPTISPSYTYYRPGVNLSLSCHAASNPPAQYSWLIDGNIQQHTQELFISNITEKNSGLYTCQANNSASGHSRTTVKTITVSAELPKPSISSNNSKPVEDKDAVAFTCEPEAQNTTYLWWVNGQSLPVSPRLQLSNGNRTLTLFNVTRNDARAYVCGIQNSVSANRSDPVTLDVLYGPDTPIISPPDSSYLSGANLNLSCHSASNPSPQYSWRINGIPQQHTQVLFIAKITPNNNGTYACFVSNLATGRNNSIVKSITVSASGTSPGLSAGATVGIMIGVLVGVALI
substance,measurement,value
"murine A5B7 F(ab')2-bovine pancreatic ribonuclease conjugate, radioiodinated with 125I (from UniProt P61823 27-150)",immunoreactivity retained after radioiodination,> 50%
